In patent US20250195614A1 (IMMUNITYBIO, published 2025):

B1: commercial TGF-β1 receptor II-Fc fusion (TGFRII/Fc, R&D Systems) (Fc fusion, UniProt P37173 24-159, looked up, not shown: a dimerising Fc or GST)
chain: IPPHVQKSVNNDMIVTDNNGAVKFPQLCKFCDVRFSTCDNQKSCMSNCSITSICEKPQEVCVAVWRKNDENITLETVCHDPKLPYHDFILEDAASPKCIMKEKKKPGETFFMCSCSSDECNDNIIFSEEYNTSNPD

Legend:
[1] = target: IL2Rβ and common γ chain on 32Dβ cells; test: cell-based or functional assay
TGF-β1 = TGF-β1 (UniProt P01137 279-390); test: cell-based or functional assay
Sequence of TGF-β1 (P01137 279-390 limits assumed): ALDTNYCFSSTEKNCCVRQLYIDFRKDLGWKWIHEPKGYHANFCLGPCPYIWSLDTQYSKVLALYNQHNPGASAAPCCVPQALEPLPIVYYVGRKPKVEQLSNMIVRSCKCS

Molecule	EC50 (printed as IC50), IL-15 activity on IL-15 dependent 32Dβ cells (WST-1, OD450) [1] [pM]	EC50, 32Dβ cell proliferation (WST1, absorbance 450 nM) [1] [pM]	IC50, TGF-β1 blocking activity in HEK-Blue TGF-β cells (OD620) (TGF-β1) [pM]	IC50, inhibition of TGFβ1 (0.1 nM) activity in HEK-Blue TGFβ cells (QUANTI-Blue OD 620-655 nM) (TGF-β1) [pM]	TGF-β1 blocking activity against that of TGFRt15-TGFRs or TGFRt15*-TGFRs (HEK-Blue TGF-β cells) (TGF-β1) [fold]
recombinant IL-15 (from UniProt P40933 49-162) (ligand)	81.8	10.6	–	–	–
B1	–	–	470	461	~10
